Data on two molecules can be found in publication PMC8810855 (2022).

Assay [1] has as its target T1, Arp2/3 complex (bovine brain) (bovine, UniProt P61157 1-418; A7MB62 1-394; Q58CQ2 1-372; Q3MHR7 1-300; Q3T035 1-178; Q148J6 …). Nature of the assay: ITC; ATP; second, low-affinity site (Kd2).
The target in assay [2] is T1, Arp2/3 complex (bovine brain). Nature of the assay: ITC; ATP; high-affinity site (Kd1).
The target is the same in assay [3]. Nature of the assay: ITC; ATP.

B1: Hybrid_WH2_C-helix (N-WASP WH2 domain and C-helix with linker and A domain of Arpin) (other)
chain: PVSCSGRDALLDQIRQGIQLKSVADGQESTPPTPAPTSGIVGALMEVMQKRSKAIAAAEIREQGDGAEDEEWDD
B1: the Kd in assay [1] is 826 nM; in assay [2], 36.7 nM.

B2: Arpin_CA (Arpin residues S194-D226) (domain or fragment)
chain: SWTDNIMAQKSSKGAAAEIREQGDGAEDEEWDD
Take B2: in assay [3], the dissociation constant (Kd) was 1710 nM.
